This test addresses MET-Fc: extracellular MET domain fused with human IgG1-Fc (human, UniProt P08581 25-932). Nature of the test: AlphaScreen or HTRF. A general note: Bead proximity is the source of the signal in Alpha formats.

This passage reports Kd results from publication PMC5496502 (Chemical Science, 2015).

Chain of MET-Fc: extracellular MET domain fused with human IgG1-Fc (P08581 25-932): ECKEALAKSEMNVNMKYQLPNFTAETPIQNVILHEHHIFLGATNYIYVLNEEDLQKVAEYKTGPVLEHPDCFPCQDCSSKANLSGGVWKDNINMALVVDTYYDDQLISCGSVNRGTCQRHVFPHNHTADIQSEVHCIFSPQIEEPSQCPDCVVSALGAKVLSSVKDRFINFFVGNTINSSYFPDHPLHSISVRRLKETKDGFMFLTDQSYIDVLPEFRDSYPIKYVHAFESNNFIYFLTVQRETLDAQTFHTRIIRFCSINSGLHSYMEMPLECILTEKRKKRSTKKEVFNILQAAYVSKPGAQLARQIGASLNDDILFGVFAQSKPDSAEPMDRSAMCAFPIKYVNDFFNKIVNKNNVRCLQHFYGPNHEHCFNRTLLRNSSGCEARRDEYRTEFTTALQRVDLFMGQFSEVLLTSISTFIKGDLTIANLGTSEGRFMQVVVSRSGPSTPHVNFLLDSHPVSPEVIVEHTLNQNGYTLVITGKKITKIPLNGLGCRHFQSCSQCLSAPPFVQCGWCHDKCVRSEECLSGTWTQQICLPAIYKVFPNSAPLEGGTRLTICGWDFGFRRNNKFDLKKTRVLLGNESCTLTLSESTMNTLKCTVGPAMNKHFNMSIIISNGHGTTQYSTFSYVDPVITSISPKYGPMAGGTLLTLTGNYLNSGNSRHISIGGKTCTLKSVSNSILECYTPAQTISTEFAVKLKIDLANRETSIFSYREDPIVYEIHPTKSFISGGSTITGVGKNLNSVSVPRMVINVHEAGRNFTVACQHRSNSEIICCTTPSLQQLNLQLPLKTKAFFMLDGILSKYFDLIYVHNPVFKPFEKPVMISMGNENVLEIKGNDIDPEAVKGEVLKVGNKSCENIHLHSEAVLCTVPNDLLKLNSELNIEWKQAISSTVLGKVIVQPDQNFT

B1: K1B: synthetic K1 domain of HGF/SF (residues 125-209) with C-terminal Gly-Gly-Lys(biotin) (domain or fragment)
chain: IRNCIIGKGRSYKGTVSITKSGIKCQPWSSMIPHEHSFLPSSYRGKDLQENYCRNPRGEEGGPWCFTSNPEVRYEVCDIPQCSEVGGK
modifications: biotin on the side chain of the added C-terminal lysine; three disulfide bonds
B1 yielded a Kd of around 16 nM.

For orientation: Kd means the constant that tells how readily two partners part at equilibrium. A low value points to higher affinity.
